Data reported in paper PMC10925246 (bioRxiv, 2024).
Ends that are not written are not given here.

T1: recombinant PotH (E. coli) with C-terminal 10-His tag (E. coli, UniProt P31135 1-317)
T1 sequence (looked up): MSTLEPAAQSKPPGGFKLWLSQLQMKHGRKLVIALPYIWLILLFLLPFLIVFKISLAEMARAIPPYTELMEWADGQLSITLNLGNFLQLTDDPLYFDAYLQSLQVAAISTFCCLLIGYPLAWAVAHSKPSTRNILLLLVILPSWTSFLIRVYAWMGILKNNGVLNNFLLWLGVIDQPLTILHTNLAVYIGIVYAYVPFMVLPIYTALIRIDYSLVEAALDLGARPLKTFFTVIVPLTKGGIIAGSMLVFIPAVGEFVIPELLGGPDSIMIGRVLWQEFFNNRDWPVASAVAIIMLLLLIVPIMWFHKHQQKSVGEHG

B1: Cys(N)-N-104 immobilized on SulfoLink Coupling resin (peptide)
peptide: AQKLLKKFSLLKPWA

Each binder was assayed against thrombin (F2) C-terminal peptide GKY20 (human) (assay: far-Western, overlay or dot blot).

Binding result, binds:
Ac-AQKLLKKFSLLKPWA [lacritin peptide N-104]
AQKSLKKFSLLKPWA (peptide, UniProt Q9GZZ8 124-138, looked up) [N-104:L108S]
AQSLLKKFSLLKPWA (peptide, UniProt Q9GZZ8 124-138, looked up) [N-104:K107S]
AQKLLKKFSSLKPWA (peptide, UniProt Q9GZZ8 124-138, looked up) [N-104:L114S]
AQKLLKKSSLLKPWA (peptide, UniProt Q9GZZ8 124-138, looked up) [N-104:F112S]
AQKLLKKFSLSKPWA (peptide, UniProt Q9GZZ8 124-138, looked up) [N-104:L115S]
AQKLLKKFSLLSPWA (peptide, UniProt Q9GZZ8 124-138, looked up) [N-104:K116S]
AQKLLKSFSLLKPWA (peptide, UniProt Q9GZZ8 124-138, looked up) [N-104:K111S]
AQKLLKKFSLLKPSA (peptide, UniProt Q9GZZ8 124-138, looked up) [N-104:W118S]
AQKLSKKFSLLKPWA (peptide, UniProt Q9GZZ8 124-138, looked up) [N-104:L109S]
AQKLLSKFSLLKPWA (peptide, UniProt Q9GZZ8 124-138, looked up) [N-104:K110S]

Biological target: thrombin (F2) C-terminal peptide GKY20 (human)
Assay: far-Western, overlay or dot blot
Remark: another data set of the same source

Binding result, binds:
AQKSSKKSSSSKPSA (peptide, UniProt Q9GZZ8 124-138, looked up) [N-104 L108S/L109S/F112S/L114S/L115S/W118S]

The binders below were run against T1, recombinant PotH (E. coli) with … (assay: pull-down).

Binding result, binds:
B1

Biological target: B1
Assay: pull-down

Binding result, binds:
Ac-WMGILKNNGVLNNFLLWLGVIDQPLTILHTN-NH2 [PotH outer loop 2 synthetic peptide]
